T1: human BCMA on NCI-H929 cells (ATCC, CRL-9068) (human, UniProt Q02223 1-184)
T1 sequence (looked up): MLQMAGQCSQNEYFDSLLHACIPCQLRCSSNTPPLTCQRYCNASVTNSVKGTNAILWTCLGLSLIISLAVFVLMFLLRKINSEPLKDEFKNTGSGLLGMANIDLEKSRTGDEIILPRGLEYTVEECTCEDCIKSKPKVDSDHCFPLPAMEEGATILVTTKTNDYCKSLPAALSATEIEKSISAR

T2: biotinylated human BCMA-Fc, Avitag recombinant protein (ACRO Biosystems, #BC7-H82F0) (human, UniProt Q02223 1-54, biotinylated (Avitag))
T2 construct: extracellular domain; Bought protein; also called huBCMA.Fc; recombinant human BCMA-ECD-Fc
T2 sequence (looked up): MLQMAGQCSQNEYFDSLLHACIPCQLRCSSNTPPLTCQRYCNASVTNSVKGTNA

B1: PR002929 (bispecific antibody, human IgG1, lambda, L234A L235A)
light: QAVVTQEPSLTVSPGGTVTLTCRSSTGAVTTSNYANWVQQKPGQAPRGLIGGTNKRAPWTPARFSGSLLGDKAALTLLGAQPEDEAEYFCALWYSNLWVFGGGTKLTVLGQPKAAPSVTLFPPSSEELQANKATLVCLISDFYPGAVTVAWKADSSPVKAGVETTTPSKQSNNKYAASSYLSLTPEQWKSHRSYSCQVTHEGSTVEKTVAPTECS
heavy: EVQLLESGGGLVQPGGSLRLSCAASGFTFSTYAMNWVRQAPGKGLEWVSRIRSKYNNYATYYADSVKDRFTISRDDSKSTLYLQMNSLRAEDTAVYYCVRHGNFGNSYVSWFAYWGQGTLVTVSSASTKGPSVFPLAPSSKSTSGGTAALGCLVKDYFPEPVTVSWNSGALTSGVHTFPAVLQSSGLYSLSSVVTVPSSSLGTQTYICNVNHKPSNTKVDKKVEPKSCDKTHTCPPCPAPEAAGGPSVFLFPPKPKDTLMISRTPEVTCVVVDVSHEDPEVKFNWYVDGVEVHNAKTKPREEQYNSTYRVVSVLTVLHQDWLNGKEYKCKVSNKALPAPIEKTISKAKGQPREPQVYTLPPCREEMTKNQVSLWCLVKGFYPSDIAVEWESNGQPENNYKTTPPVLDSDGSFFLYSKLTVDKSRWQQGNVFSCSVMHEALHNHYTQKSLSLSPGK
chain: EVQLVETGGGLIQPGGSLRLSCAASGFTVSDNYMTWVRQAPGKGLEWVSVIFSGGNTYYADSVKGRFTISRDNAKNTLYLQMNSLRAEDTALYYCARRNYDDTRGTDVFDIWGQGTMVTVSSASEPKSSDKTHTCPPCPAPEAAGGPSVFLFPPKPKDTLMISRTPEVTCVVVDVSHEDPEVKFNWYVDGVEVHNAKTKPREEQYNSTYRVVSVLTVLHQDWLNGKEYKCKVSNKALPAPIEKTISKAKGQPREPQVCTLPPSREEMTKNQVSLSCAVKGFYPSDIAVEWESNGQPENNYKTTPPVLDSDGSFFLVSKLTVDKSRWQQGNVFSCSVMHEALHNHYTQKSLSLSPGK
B2: PR002895 (bispecific antibody, human IgG1, lambda, L234A L235A)
light: B1 light
heavy: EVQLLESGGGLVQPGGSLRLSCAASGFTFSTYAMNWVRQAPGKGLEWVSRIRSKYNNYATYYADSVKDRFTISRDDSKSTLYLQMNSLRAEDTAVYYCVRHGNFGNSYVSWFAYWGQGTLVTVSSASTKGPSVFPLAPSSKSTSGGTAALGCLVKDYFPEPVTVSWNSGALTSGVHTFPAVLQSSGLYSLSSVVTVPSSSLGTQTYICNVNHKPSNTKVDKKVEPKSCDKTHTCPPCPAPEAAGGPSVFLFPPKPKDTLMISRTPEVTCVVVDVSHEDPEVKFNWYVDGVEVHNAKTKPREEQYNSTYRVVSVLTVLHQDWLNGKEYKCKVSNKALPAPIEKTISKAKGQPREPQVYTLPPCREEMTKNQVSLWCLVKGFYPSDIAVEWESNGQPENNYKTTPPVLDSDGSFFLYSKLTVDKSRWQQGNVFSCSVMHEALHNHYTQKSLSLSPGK
chain: EVQLVETGGGLIQPGGSLRLSCAASGFTVSDNYMTWVRQAPGKGLEWVSVIFSGGNTYYADSVKGRFTISRDNAKNTLYLQMNSLRAEDTALYYCARRNYDDTRGTDVFDIWGQGTMVTVSSGGGGSGGGGSGGGGSEVQLVETGGGLIQPGGSLRLSCAASGFTVSDNYMTWVRQAPGKGLEWVSVIFSGGNTYYADSVKGRFTISRDNAKNTLYLQMNSLRAEDTALYYCARRNYDDTRGTDVFDIWGQGTMVTVSSASEPKSSDKTHTCPPCPAPEAAGGPSVFLFPPKPKDTLMISRTPEVTCVVVDVSHEDPEVKFNWYVDGVEVHNAKTKPREEQYNSTYRVVSVLTVLHQDWLNGKEYKCKVSNKALPAPIEKTISKAKGQPREPQVCTLPPSREEMTKNQVSLSCAVKGFYPSDIAVEWESNGQPENNYKTTPPVLDSDGSFFLVSKLTVDKSRWQQGNVFSCSVMHEALHNHYTQKSLSLSPGK
B3: PR003178 (bispecific antibody, human IgG1, lambda, L234A L235A)
light: B1 light
heavy: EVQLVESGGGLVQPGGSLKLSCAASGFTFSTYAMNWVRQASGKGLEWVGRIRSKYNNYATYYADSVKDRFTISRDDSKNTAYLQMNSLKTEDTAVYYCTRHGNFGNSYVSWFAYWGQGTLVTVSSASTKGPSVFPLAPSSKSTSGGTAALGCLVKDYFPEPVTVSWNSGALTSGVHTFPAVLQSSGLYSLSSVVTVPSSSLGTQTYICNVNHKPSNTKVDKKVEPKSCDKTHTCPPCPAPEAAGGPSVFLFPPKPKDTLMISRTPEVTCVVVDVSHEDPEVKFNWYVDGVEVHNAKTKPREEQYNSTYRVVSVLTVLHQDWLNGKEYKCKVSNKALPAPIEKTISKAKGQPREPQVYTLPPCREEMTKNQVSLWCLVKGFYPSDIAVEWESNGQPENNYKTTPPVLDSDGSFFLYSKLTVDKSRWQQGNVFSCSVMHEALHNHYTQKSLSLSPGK
chain: B2 chain
B4: PR002953 (bispecific antibody, human IgG1, lambda, L234A L235A)
light: B1 light
heavy: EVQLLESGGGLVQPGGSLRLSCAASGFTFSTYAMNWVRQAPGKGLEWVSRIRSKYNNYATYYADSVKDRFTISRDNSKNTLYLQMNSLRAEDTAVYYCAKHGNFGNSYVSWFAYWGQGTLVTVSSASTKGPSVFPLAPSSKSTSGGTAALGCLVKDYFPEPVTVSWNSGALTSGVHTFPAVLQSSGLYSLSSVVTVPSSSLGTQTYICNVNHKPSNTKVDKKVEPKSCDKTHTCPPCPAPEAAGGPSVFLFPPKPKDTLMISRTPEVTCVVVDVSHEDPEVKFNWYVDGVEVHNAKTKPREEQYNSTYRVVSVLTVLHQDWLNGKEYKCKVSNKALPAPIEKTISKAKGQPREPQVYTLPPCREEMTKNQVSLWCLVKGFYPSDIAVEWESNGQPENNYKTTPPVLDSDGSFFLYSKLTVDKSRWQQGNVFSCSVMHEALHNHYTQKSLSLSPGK
chain: B2 chain
B5: PR000274, anti-BCMA monoclonal antibody CA8-J6M0 (antibody, human IgG1, kappa, V domains shown)
VH: QVQLVQSGAEVKKPGSSVKVSCKASGGTFSNYWMHWVRQAPGQGLEWMGATYRGHSDTYYNQKFKGRVTITADKSTSTAYMELSSLRSEDTAVYYCARGAIYDGYDVLDNWGQGTLVTVSS
VL: DIQMTQSPSSLSASVGDRVTITCSASQDISNYLNWYQQKPGKAPKLLIYYTSNLHSGVPSRFSGSGSGTDFTLTISSLQPEDFATYYCQQYRKLPWTFGQGTKLEIKR
notes: also called Positive control 1; CA8-J6M0 hIgG1
B6: PR001046, anti-BCMA HCAb antibody (clone 1005P63B7) (antibody, human IgG1, V domains shown)
VH: EVQLVETGGGLIQPGGSLRLSCAASGFTVSDNYMTWVRQAPGKGLEWVSVIFSGGNTYYADSVKGRFTISRDNAKNTLYLQMNSLRAEDTALYYCARRNYDDTRGTDVFDIWGQGTMVTVSS

Target: T3, cynomolgus monkey CD3 (TCR/CD3 complex) on cynomolgus monkey T cells (cynomolgus monkey)
T3 construct: whole, on cells
Assay: flow cytometry (FACS) on cynomolgus monkey T cells

T3 sequence (Q95LI5 22-198, one chain of several): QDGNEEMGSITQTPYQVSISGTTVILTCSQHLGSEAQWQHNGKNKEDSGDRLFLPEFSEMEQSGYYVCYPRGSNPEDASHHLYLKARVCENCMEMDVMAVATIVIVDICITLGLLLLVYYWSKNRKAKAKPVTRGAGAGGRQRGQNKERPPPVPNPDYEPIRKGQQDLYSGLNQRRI

In order of falling “Maximum MFI” value:
1. B2  18600 MFI
2. B3  10700 MFI
3. B1  10100 MFI
4. B4  9710 MFI

Target: T1, human BCMA on NCI-H929 cells (ATCC, …)
Assay: cell-based or functional assay

For B3, the “Killing EC50 (nM), PBMC + NCI-H929, + 62.5 ng/ml sBCMA” value was 0.009 nM.

With B3 the “Killing EC50 (nM), PBMC + NCI-H929, + 125 ng/mL sBCMA” value was 0.014 nM.

B3 was tested, and the “Killing EC50 (nM), PBMC + NCI-H929, + 250 ng/ml sBCMA” value was 0.065 nM.

For B3, the “Killing EC50 (nM), PBMC + NCI-H929, + 500 ng/ml sBCMA” value was 0.12 nM.

B3 was tested, and the “Killing EC50 (nM), PBMC + NCI-H929, no sBCMA” value was 0.005 nM.

Target: T1, human BCMA on NCI-H929 cells (ATCC, …)
Assay: cell-based or functional assay
Remark: another data set of the same source

In order of rising “IFN-γ release, EC50” value:
1. B2  0.0223 nM
2. B3  0.0595 nM
3. B4  0.212 nM

In order of rising “IFN-γ release, Maximum” value:
1. B4  640 pg/mL
2. B3  1210 pg/mL
3. B2  1440 pg/mL

In order of rising “IL-2 release, EC50” value:
1. B2  0.0211 nM
2. B3  0.175 nM
3. B4  0.795 nM

In order of falling “IL-2 release, Maximum” value:
1. B3  101 pg/mL
2. B2  100 pg/mL
3. B4  23.6 pg/mL

In order of rising “IL-6 release, EC50” value:
1. B2  0.00839 nM
2. B3  0.0448 nM
3. B4  0.128 nM

In order of falling “IL-6 release, Maximum” value:
1. B2  118 pg/mL
2. B3  89.7 pg/mL
3. B4  68.5 pg/mL

In order of falling “IL-10 release, EC50” value:
1. B4  0.208 nM
2. B3  0.104 nM
3. B2  0.0134 nM

In order of falling “IL-10 release, Maximum” value:
1. B3  322 pg/mL
2. B2  240 pg/mL
3. B4  129 pg/mL

In order of falling “NCI-H929 killing, EC50” value:
1. B4  0.047 nM
2. B3  0.0102 nM
3. B2  0.00293 nM

In order of falling “NCI-H929 killing, Maximum killing rate %” value:
1. B2  57.9%
2. B4  57.5%
3. B3  56.8%

In order of rising “TNF-α release, EC50” value:
1. B2  0.00818 nM
2. B3  0.0281 nM
3. B4  0.197 nM

In order of falling “TNF-α release, Maximum” value:
1. B3  1330 pg/mL
2. B2  1280 pg/mL
3. B4  894 pg/mL

Target: T2, biotinylated human BCMA-Fc, Avitag …
Assay: BLI (Octet Red96e), biotinylated BCMA-Fc on SA sensor, 1:1 global fitting;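 also: Anti-BCMA antibodies analysed as binding partners of the captured BCMA antigen, with reference signals removed by double referencing before kinetic fitting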

In order of falling Kd:
1. B1  5.95 nM
2. B5  0.655 nM
3. B3  0.236 nM
4. B4  0.225 nM
5. B2  0.197 nM
6. B6  0.0775 nM

In order of falling koff:
1. B1  0.00148 s⁻¹
2. B5  0.000135 s⁻¹
3. B3  0.000117 s⁻¹
4. B4  0.000107 s⁻¹
5. B2  8.11e-05 s⁻¹
6. B6  3.56e-05 s⁻¹

In order of falling kon:
1. B3  494000 M⁻¹ s⁻¹
2. B4  474000 M⁻¹ s⁻¹
3. B6  459000 M⁻¹ s⁻¹
4. B2  412000 M⁻¹ s⁻¹
5. B1  249000 M⁻¹ s⁻¹
6. B5  206000 M⁻¹ s⁻¹

Target: T4, cynomolgus monkey BCMA (ACRO Biosystems, #BCA-C82F4) (cynomolgus monkey, UniProt A0A2K5UD97 1-53)
T4 construct: Bought protein; also called cyBCMA.Fc
Assay: BLI (Octet Red96e), cyBCMA.Fc on SA sensor, 1:1 global fitting

T4 sequence (A0A2K5UD97 entry or part of it): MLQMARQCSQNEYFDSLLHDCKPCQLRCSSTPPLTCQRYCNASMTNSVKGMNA

In order of falling Kd:
1. B1  6.62 nM
2. B3  0.319 nM
3. B2  0.272 nM
4. B4  0.195 nM
5. B6  0.119 nM
6. B5  0.0388 nM

In order of falling koff:
1. B1  0.00582 s⁻¹
2. B3  0.000262 s⁻¹
3. B2  0.000242 s⁻¹
4. B6  7.54e-05 s⁻¹
5. B4  7.12e-05 s⁻¹
6. B5  7.76e-06 s⁻¹

In order of falling kon:
1. B2  890000 M⁻¹ s⁻¹
2. B1  879000 M⁻¹ s⁻¹
3. B3  822000 M⁻¹ s⁻¹
4. B6  633000 M⁻¹ s⁻¹
5. B4  365000 M⁻¹ s⁻¹
6. B5  200000 M⁻¹ s⁻¹

Target: T1, human BCMA on NCI-H929 cells (ATCC, …)
Assay: cell-based or functional assay
Remark: another data set of the same source

B3 was tested, and the “Killing EC50 (nM), PBMC + NCI-H929, + 10 ng/mL sBAFF” value was 0.005 nM.

In the case of B3, the “Killing EC50 (nM), PBMC + NCI-H929, + 10 ng/ml sAPRIL” value is reported as 0.009 nM.

For B3, the “Killing EC50 (nM), PBMC + NCI-H929, + 100 ng/mL sAPRIL” value was 0.011 nM.

For B3, the “Killing EC50 (nM), PBMC + NCI-H929, + 100 ng/mL sBAFF” value was 0.008 nM.

In the case of B3, the “Killing EC50 (nM), PBMC + NCI-H929, no soluble ligand” value is reported as 0.007 nM.

Target: T4, cynomolgus monkey BCMA (ACRO …)
Assay: BLI; KD for cynomolgus monkey BCMA divided by KD for human BCMA

In order of rising “KD ratio (cy BCMA/hu BCMA)” value:
1. B5  0.06
2. B4  0.87
3. B1  1.11
4. B3  1.35
5. B2  1.38
6. B6  1.54

Target: T5, human CD3 (TCR/CD3 complex) on human T cells (human, UniProt P07766 23-207)
T5 construct: whole, on cells
Assay: flow cytometry (FACS) on human T cells, Experiment 3

T5 sequence (P07766 23-207, one chain of several): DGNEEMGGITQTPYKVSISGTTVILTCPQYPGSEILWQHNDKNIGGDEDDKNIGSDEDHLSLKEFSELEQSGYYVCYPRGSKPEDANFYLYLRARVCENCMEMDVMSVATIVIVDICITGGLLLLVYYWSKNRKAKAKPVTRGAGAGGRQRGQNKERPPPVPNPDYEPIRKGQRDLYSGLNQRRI

In order of falling “Maximum MFI” value:
1. B2  322000 MFI
2. B1  283000 MFI
3. B3  23900 MFI
4. B4  17000 MFI

— patent publication US20230322953A1 (HARBOUR BIOMED SHANGHAI, published 2023)
